One test concerns the target T1, F-box protein 2 (human, UniProt Q9UK22 1-296).
T1 construct: also called FBXO2
T1 sequence: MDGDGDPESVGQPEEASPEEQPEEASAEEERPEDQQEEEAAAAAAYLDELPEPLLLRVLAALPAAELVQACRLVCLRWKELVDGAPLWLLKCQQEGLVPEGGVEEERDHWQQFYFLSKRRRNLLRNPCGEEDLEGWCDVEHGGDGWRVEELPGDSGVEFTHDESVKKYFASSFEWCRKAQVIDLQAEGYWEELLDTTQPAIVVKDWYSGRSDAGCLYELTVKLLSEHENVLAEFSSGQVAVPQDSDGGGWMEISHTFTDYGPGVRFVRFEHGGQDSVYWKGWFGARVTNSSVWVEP

Another test deals with T2, tubulin gamma 1 (human, UniProt P23258 1-451).
T2 construct: also called TUBG1
T2 sequence (P23258 whole entry): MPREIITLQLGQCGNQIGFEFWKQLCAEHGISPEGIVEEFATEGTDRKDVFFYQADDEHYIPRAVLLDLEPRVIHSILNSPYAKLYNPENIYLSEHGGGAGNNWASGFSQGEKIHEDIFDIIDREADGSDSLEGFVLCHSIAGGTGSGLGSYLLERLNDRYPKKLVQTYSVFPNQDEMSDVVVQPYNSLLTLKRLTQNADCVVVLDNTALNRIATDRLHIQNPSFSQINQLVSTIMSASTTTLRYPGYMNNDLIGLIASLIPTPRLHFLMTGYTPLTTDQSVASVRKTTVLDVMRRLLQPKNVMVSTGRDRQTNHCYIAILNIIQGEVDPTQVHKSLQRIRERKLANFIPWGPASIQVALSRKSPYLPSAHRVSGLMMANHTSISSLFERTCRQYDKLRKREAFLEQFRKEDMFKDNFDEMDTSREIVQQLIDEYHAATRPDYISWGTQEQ

For test [1], the target named is T3, Rna polymerase iii subunit g (human, UniProt O15318 1-223).
T3 construct: also called POLR3G
T3 sequence: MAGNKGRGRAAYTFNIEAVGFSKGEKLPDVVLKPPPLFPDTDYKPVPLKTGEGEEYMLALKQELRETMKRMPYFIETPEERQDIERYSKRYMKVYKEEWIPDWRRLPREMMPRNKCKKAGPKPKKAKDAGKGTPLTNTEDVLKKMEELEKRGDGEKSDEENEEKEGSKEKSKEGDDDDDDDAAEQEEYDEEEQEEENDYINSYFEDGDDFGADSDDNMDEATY

Test [2] addresses T4, sorting nexin 1, transcript variant 1 (human, UniProt Q13596 1-522).
T4 construct: also called SNX1

The target in test [3] is T5, Vezatin, adherens junctions transmembrane protein (human, UniProt Q9HBM0 56-779 at identity 0.99), limits assumed).
T5 construct: also called VEZT
T5 chain: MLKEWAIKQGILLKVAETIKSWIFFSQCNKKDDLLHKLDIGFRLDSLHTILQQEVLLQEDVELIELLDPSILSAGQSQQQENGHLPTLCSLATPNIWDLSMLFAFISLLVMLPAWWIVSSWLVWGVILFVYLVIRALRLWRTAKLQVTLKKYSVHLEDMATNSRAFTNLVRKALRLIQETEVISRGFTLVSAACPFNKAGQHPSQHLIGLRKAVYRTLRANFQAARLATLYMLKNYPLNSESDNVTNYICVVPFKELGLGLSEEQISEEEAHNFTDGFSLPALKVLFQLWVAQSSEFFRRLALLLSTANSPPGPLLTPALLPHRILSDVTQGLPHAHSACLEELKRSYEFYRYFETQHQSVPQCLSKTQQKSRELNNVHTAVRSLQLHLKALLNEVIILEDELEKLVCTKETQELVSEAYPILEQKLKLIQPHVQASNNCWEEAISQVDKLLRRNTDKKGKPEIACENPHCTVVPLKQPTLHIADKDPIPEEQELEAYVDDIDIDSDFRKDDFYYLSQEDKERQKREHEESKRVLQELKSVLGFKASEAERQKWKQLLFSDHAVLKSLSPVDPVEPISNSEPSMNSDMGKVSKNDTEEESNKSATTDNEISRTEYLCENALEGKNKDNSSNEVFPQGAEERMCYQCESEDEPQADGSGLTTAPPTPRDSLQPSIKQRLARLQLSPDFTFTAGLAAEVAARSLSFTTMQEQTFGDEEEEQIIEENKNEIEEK

The next test deals with T6, DEAD-box helicase 53 (human, UniProt Q86TM3 1-631).
T6 construct: also called DDX53
T6 sequence (Q86TM3 other isoform, or with tags, fused parts or gaps limits assumed): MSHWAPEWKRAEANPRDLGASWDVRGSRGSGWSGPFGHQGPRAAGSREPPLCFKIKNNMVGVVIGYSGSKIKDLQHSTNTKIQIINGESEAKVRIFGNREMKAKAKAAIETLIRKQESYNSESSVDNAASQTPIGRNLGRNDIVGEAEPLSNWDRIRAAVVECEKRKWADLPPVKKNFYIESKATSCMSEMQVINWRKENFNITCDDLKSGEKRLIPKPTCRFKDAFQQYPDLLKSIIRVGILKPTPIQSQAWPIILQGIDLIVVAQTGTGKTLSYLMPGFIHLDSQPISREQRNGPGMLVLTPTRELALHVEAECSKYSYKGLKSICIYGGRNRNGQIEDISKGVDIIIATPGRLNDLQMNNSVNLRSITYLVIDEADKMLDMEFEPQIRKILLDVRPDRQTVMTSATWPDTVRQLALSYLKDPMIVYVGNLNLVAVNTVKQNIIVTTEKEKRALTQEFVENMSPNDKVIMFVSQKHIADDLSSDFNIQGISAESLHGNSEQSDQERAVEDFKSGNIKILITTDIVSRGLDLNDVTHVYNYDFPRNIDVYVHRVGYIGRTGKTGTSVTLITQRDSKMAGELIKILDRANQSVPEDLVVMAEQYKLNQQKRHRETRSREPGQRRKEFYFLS

The target in test [4] is T7, grancalcin, transcript variant 4 (human, UniProt P28676 1-217).
T7 construct: also called GCA
T7 sequence: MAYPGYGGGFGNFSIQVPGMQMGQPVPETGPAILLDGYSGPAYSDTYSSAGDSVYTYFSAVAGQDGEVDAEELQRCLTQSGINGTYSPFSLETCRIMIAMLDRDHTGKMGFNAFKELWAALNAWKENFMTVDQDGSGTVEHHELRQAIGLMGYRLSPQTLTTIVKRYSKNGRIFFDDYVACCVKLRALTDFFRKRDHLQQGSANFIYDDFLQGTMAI

The target of test [5] is T8, nudix hydrolase 22, transcript variant 2 (human, UniProt Q9BRQ3 1-303).
T8 construct: also called NUDT22
T8 chain: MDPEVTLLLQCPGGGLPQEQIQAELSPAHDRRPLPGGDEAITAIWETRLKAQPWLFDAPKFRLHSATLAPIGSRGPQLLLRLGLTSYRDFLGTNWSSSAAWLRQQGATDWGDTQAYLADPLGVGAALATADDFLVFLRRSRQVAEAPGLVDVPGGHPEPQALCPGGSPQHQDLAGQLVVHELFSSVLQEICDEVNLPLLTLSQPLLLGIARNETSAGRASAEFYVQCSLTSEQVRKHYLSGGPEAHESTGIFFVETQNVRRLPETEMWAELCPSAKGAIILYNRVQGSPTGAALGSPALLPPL

Test [6] concerns the target T9, endosome associated trafficking regulator 1, transcript variant 2 (human, UniProt Q96C92 59-435).
T9 construct: on protein array; also called SDCCAG3
T9 chain: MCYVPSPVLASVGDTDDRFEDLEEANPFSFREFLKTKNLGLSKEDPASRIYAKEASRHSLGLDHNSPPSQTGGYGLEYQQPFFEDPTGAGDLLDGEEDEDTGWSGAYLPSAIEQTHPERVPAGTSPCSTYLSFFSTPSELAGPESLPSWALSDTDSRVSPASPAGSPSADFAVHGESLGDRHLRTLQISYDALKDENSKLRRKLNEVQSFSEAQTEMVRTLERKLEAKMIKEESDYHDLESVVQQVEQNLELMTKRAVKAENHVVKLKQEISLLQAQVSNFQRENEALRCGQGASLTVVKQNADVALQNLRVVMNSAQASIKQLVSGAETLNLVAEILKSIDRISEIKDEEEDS
The test is described as follows: protein array.

Test [7] addresses T10, charged multivesicular body protein 4B (human, UniProt Q9H444 2-224).
T10 construct: on protein array; also called CHMP4B
T10 sequence: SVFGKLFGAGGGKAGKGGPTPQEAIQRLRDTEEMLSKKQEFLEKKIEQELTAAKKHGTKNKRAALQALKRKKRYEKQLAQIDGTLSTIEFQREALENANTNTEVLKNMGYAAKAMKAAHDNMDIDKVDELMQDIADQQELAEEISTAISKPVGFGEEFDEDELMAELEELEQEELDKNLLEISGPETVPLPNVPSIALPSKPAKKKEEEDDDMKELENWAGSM
The test is described as follows: protein array.

The target in test [8] is CRK like proto-oncogene, adaptor protein, transcript variant 1 (human, UniProt P46109 1-303).
Sequence of CRK like proto-oncogene, adaptor protein, transcript variant 1 (P46109 whole entry, change not shown): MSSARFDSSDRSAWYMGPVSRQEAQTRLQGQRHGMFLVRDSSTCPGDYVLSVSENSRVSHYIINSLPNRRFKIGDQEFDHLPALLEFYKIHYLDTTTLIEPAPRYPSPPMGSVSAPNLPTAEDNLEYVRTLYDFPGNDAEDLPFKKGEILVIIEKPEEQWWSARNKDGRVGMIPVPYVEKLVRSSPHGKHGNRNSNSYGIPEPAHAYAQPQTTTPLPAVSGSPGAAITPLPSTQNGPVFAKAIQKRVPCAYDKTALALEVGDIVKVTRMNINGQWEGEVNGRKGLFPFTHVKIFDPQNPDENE

T4 sequence (Q13596 whole entry, change not shown): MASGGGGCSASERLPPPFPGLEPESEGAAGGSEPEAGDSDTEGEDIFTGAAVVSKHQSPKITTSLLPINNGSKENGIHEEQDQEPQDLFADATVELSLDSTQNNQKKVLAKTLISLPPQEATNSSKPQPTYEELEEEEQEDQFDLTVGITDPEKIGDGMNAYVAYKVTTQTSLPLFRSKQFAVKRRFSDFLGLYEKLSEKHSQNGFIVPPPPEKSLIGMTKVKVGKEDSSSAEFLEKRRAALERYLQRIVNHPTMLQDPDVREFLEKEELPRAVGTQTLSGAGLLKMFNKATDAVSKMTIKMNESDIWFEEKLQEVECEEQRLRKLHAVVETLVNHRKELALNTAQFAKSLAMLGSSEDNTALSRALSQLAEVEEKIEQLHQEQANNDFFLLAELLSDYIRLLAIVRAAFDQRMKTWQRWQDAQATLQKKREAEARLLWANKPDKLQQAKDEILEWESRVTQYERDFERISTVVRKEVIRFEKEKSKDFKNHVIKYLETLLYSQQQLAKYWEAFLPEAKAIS

B1: TPAN1007 (antibody, V domains shown)
VH: PVQLVQSGAEVKKPGESLKISCQGSGYNFSRYWIGWVRQMPGKGLEWMGVVFPGDSDIRYSLSFQGHITIYADNSISTAYLQWSSLKASDTAIYYCATTSTMPMPTRGRDWFDPWGQGTLVTVSS
VL: PSVLTQPPSVSGAPGQRVTISCTGSSSNIGAGYDVHWYQQLPGTAPKLLIYANTNRPSGVPDRFSGSKSGTSASLAITGLQAEDEADYYCQSYDNSLSGGVFGGGTKLTVLG
With B1, the binding result with F-box protein 2 and in the test with tubulin gamma 1 was “binds” in each case.

B2: TPAN1003 (antibody, V domains shown)
VH: QVQLVQSGAEVKKPGASVKISCQAFGYNFIDNAIHWVRQAPGQRPEWMGWINAGNGNTRYSQNFQGRVTITKVTSASTAYMEMSRLKSEDTAVYFCARSSKWTDWHFDYWGQGTLVTVSS
VL: EIVLTQSPGTLSLSPGETATLSCRASQSVANNYLAWHQQKPGQAPRLLIYGASKRAAGIPDRFSGSGSGTEFTLTISRLEPEDCAVYYCQEYVKSPGFAFGPGTRVDIKR
Consider B2, for which, in [1], the binding result is recorded as “binds”.

B3: TPAN1004 (antibody, V domains shown)
VH: QIQLVQSGAEVKKPGASVKVSCKTSGYTFTHYGVAWVRQAPGQGPEWMGWISPYNGNIEYGQKFQGRVTMTTDTSTNTAYMELRSLRYDDTAVYYCARDLDEINSSWLDPWGQGTLIIVSP
VL: EIVLTQSPATLSLSPGERATLSCRASQSVSSNYLAWYQQKPGQAPRLLIHGASSRATGFPDRFSGSGSGTDFTLTINRLEPEDFAVYYCQQYGTSPQTFGQGTKVEIKR
In the case of B3, the binding result in [2] is on record as “binds”.

B4: TOVA1005 (antibody, V domains shown)
VH: QITLKESGPTLVKPTQTLTLTCTFSGFSLSTNGVGVGWIRQPPGKALEWLALINWDDDKRYSPSLKSRLTITKDTSKNQVVLTMTNLDPVDTATYYCVHARDDYGDSAWSTGPVWGQGTLVTVSS
VL: DFLLTQPHSVSESPGKTVTISCTRSSGSIASNYVQWYQQRPGSSPSTVIYEDHQRPSGVPGRFSGSIDSSSNSASLTISGLKTEDEADYFCQSSDSNNHVVFGGGTKLTVLG
On to B4, for which the binding result (in test [3]; with DEAD-box helicase 53) was “binds” in each case.

B5: TPAN1001 (antibody, V domains shown)
VH: QVQLVQSGAEVKKPGSSVKVSCKASRGTFSNHAVSWVRQAPGQGLEWVGGIIPVFGPPNYAQKFRGRVTITADRSTNTAYMELNSLRSEDTAVYYCARTQWGTDVEATNPYYYFMDVWGKGTTVTVSS
VL: EIVLTQSPGTLSLSPGHRATLSCRASQDVASTYLAWYQQKPGQAPRLLIYGASSRATGIPDRFSGSGSGTDFTLTISRLEPEDFAVFYCQYYGGSPGFTFGPGTKVDFKR
B5: in test [4], the binding result is “binds”.

B6: TOVA1007 (antibody, V domains shown)
VH: PVQLQESGPGLVNPSQTLSLTCTVSGGSISSGGYCWSWVRQHPGKGLEWIGCIYYIGTTYYMRSLKSRLIISIDTSKNQFSLKLTSVTAADSAVYYCARGGELLGGFGYSGMDVWGQGTTVTVSS
VL: not shown
For the molecule B6, the binding result in [5] is “binds”.

B7: TBRE1034 (antibody, V domains shown)
VH: QVQLVESGGGLVEPGGSLRLSCAASGFTFSDYYMSWIRQAPGKRLEWISHMSSGGNRRHYADSVRGRFTISRDNAKNSLYLQMNSMRADDTAVYYCARDKRSGMTSDRRIDYWGQGTRVTVSS
VL: DIQMTQSPSSLSASVGDRITITCRASQSVGTYLSWFQQKPGKAPKLLIYAASSLQSGVPSRFSGSGSGTDFTLTISSLQPEDFATYFCQQSYSVPPWTFGQGTKVEIKR
notes: VH/VL only
Turning to B7, the binding result in test [6] and in test [7] was “binds” each time.

B8: TPAN1006 (antibody, V domains shown)
VH: QVQLVQSGAEVKKPGASVKLSCKPSGYTFSSYYIHWLRQAPGQGLEWMGIINPSGGYTSSAQKFQGRVTMTRDTSTSTIYMELSSLRAEDTAVYYCARRGEVGTMVRVFRKPFDYWGQGTLVTVSS
VL: QSVLTQPPSVSGAPGQRVTISCTGSSSNIGAQYDVHWYKVIPGTAPKLLIYGNDNRPSGVPDRFSGSKSGTSASLAITGLQSEDEADYYCQSNDISLSGSVVFGGGTKLTVLG
B8: the binding result in [8] was “binds”.
